Data from the supplement of paper PMC10201428.
± gives the standard deviation of the averaged measurements.

Experiments:
[1] = tested on: VchCAST RNA-guided transposition machinery (E. coli BL21(DE3) host, lacZ target); assay: relative integration efficiency (T-LR orientation) vs wild-type transposon end (log2 (normalized fold change)); transposon end mutated: right end (5 bp flank + 75 bp right end); higher = more efficient transposition
Outline: (§1)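 Barcoded pools of 1549 left-end or 1849 right-end transposon variants were cloned into a pUC57 mini-transposon donor. Each pool was co-transformed with a T7-driven effector plasmid (CRISPR array, tniQ-cas8-cas7-cas6, tnsA-tnsB-tnsC) into E. coli BL21(DE3) and plated with 0.1 mM IPTG at 37°C for 18 h. Input plasmids and genomic integration junctions were PCR-amplified and Illumina-sequenced, with two biological output replicates and four wild-type barcodes as reference. Relative integration efficiency is output/input barcode abundance fold change, normalised to wild-type barcodes and log-transformed.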

[2] = tested on: VchCAST RNA-guided transposition machinery (E. coli BL21(DE3) host, lacZ target); assay: relative integration efficiency (T-RL orientation) vs wild-type transposon end (log2 (normalized fold change)); transposon end mutated: right end (5 bp flank + 75 bp right end); higher = more efficient transposition
Outline: as §1

Sequence: ACATTTGTTGATACAACCATAAAATGATAATTAATAATTATTTATAATCAGCAACTTAACCCACCCATAAATTGATAATTATCAACAAACGCCCGGTCGCGGTACTCTGATCATAGTCAGACCAACA
- relative integration efficiency (log2) [1]: 0.743 ± 0.49
- relative integration efficiency (log2) [2]: -2.76 ± 0.67

Sequence: ACATTTGTTGATACAACCATAAAATGATAATTAATAATTATTTATAATCAGCAACTTAACCCACCCATAAATTGATAATTATCACACCCATAAATTGATATTGCCTCTGATCATAGTCAGACCAACA
- relative integration efficiency (log2) [1]: 0.044 ± 0.09
- relative integration efficiency (log2) [2]: -3.06 ± 0.43

Sequence: ACATTTGTTGATACAACCATAAAATGATAATTAATAATTATTTATAATCAGCAACTTACACCCATAAATTGATAATTATCAACAAACGCCCGGTCGCGGTACTCTGATCATAGTCAGACCAACATTG
- relative integration efficiency (log2) [1]: -1.91 ± 0.28
- relative integration efficiency (log2) [2]: -4.47 ± 1

Sequence: ACATTTGTTGATACAACCATAAAATGATAATTAATAATTATTTATAATCAGCAACTTACACCCATAAATTGATAATTATCACACCCATAAATTGATATTGCCTCTGATCATAGTCAGACCAACATTG
- relative integration efficiency (log2) [1]: -3.43 ± 0.46
- relative integration efficiency (log2) [2]: -5.34 ± 0.86

Sequence: ACATTTGTTGATACAACCATAAAATGATAATTAATAATTATTTATAATCAGCAACTTCACCCATAAATTGATAATTATCAACAAACGCCCGGTCGCGGTACTCTGATCATAGTCAGACCAACATTGC
- relative integration efficiency (log2) [1]: 0.707 ± 0.87
- relative integration efficiency (log2) [2]: -2.15 ± 0.52

Sequence: ACATTTGTTGATACAACCATAAAATGATAATTAATAATTATTTATAATCAGCAACTTCACCCATAAATTGATAATTATCACACCCATAAATTGATATTGCCTCTGATCATAGTCAGACCAACATTGC
- relative integration efficiency (log2) [1]: -1.32 ± 0.21
- relative integration efficiency (log2) [2]: -3.33 ± 0.32

Sequence: ACATTTGTTGATACAACCATAAAATGATAATTAATAATTATTTATAATCAGCACACCCATAAATTGATAATTATCAACAAACGCCCGGTCGCGGTACTCTGATCATAGTCAGACCAACATTGCTACG
- relative integration efficiency (log2) [1]: 0.238 ± 0.52
- relative integration efficiency (log2) [2]: -2.43 ± 0.16

Sequence: ACATTTGTTGATACAACCATAAAATGATAATTAATAATTATTTATAATCAGCACACCCATAAATTGATAATTATCACACCCATAAATTGATATTGCCTCTGATCATAGTCAGACCAACATTGCTACG
- relative integration efficiency (log2) [1]: -2.77 ± 0.42
- relative integration efficiency (log2) [2]: -4.17 ± 0.11

Sequence: ACATTTGTTGATACAACCATAAAATGATAATTAATAATTATTTATAATCAGCACCCATAAATTGATAATTATCAACAAACGCCCGGTCGCGGTACTCTGATCATAGTCAGACCAACATTGCTACGAC
- relative integration efficiency (log2) [1]: 0.752 ± 0.5
- relative integration efficiency (log2) [2]: -2.03 ± 0.4

Sequence: ACATTTGTTGATACAACCATAAAATGATAATTAATAATTATTTATAATCAGCACCCATAAATTGATAATTATCACACCCATAAATTGATATTGCCTCTGATCATAGTCAGACCAACATTGCTACGAC
- relative integration efficiency (log2) [1]: -0.258 ± 0.51
- relative integration efficiency (log2) [2]: -3.29 ± 0.1

Sequence: ACATTTGTTGATACAACCATAAAATGATAATTAATAATTATTTATAATCAGCCACCCATAAATTGATAATTATCAACAAACGCCCGGTCGCGGTACTCTGATCATAGTCAGACCAACATTGCTACGA
- relative integration efficiency (log2) [1]: 1.16 ± 0.037
- relative integration efficiency (log2) [2]: -1.83 ± 0.4

Sequence: ACATTTGTTGATACAACCATAAAATGATAATTAATAATTATTTATAATCAGCCACCCATAAATTGATAATTATCACACCCATAAATTGATATTGCCTCTGATCATAGTCAGACCAACATTGCTACGA
- relative integration efficiency (log2) [1]: -0.898 ± 1.2
- relative integration efficiency (log2) [2]: -3.35 ± 0.33

Sequence: ACATTTGTTGATACAACCATAAAATGATAATTAATAATTATTTATAATCCACCCATAAATTGATAATTATCAACAAACGCCCGGTCGCGGTACTCTGATCATAGTCAGACCAACATTGCTACGACCC
- relative integration efficiency (log2) [1]: 1.24 ± 0.42
- relative integration efficiency (log2) [2]: -2.37 ± 0.16

Sequence: ACATTTGTTGATACAACCATAAAATGATAATTAATAATTATTTATAATCCACCCATAAATTGATAATTATCACACCCATAAATTGATATTGCCTCTGATCATAGTCAGACCAACATTGCTACGACCC
- relative integration efficiency (log2) [1]: 0.382 ± 0.22
- relative integration efficiency (log2) [2]: -3.09 ± 0.19

Sequence: ACATTTGTTGATACAACCATAAAATGATAATTAATAATTATTTATACACCCATAAATTGATAATTATCAACAAACGCCCGGTCGCGGTACTCTGATCATAGTCAGACCAACATTGCTACGACCCGTA
- relative integration efficiency (log2) [1]: 0.401 ± 0.042
- relative integration efficiency (log2) [2]: -3.12 ± 0.48

Sequence: ACATTTGTTGATACAACCATAAAATGATAATTAATAATTATTTATACACCCATAAATTGATAATTATCACACCCATAAATTGATATTGCCTCTGATCATAGTCAGACCAACATTGCTACGACCCGTA
- relative integration efficiency (log2) [1]: -0.465 ± 0.37
- relative integration efficiency (log2) [2]: -3.6 ± 0.11

Sequence: ACATTTGTTGATACAACCATAAAATGATAATTAATAATTATTTATCACCCATAAATTGATAATTATCAACAAACGCCCGGTCGCGGTACTCTGATCATAGTCAGACCAACATTGCTACGACCCGTAT
- relative integration efficiency (log2) [1]: 2.6 ± 0.053
- relative integration efficiency (log2) [2]: -0.654 ± 0.39

Sequence: ACATTTGTTGATACAACCATAAAATGATAATTAATAATTATTTATCACCCATAAATTGATAATTATCACACCCATAAATTGATATTGCCTCTGATCATAGTCAGACCAACATTGCTACGACCCGTAT
- relative integration efficiency (log2) [1]: -2.04 ± 0.35
- relative integration efficiency (log2) [2]: -3.21 ± 0.32
